Laboratory results: patent publication US20150344570A1 (published 2015)

T1: FcγRIIa R (human, UniProt P12318 34-217)
T1 construct: extracellular domain; Soluble His-tagged extracellular domain expressed in FreeStyle293 cells; analyte in Biacore; also called FcgRIIa R; FcgRIIaR; not shown: His tag attached to the C terminus
T1 sequence (looked up): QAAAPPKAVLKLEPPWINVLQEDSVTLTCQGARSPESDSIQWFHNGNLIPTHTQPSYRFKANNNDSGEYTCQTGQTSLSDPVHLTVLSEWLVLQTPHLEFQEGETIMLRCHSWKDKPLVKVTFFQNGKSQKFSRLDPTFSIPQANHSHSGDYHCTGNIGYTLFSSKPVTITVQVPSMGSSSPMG

T2: FcγRIIb (human, UniProt P31994 43-217)
T2 construct: extracellular domain; Soluble His-tagged extracellular domain expressed in FreeStyle293 cells; analyte in Biacore; also called FcgRIIb; 2b; not shown: His tag attached to the C terminus
T2 sequence (looked up): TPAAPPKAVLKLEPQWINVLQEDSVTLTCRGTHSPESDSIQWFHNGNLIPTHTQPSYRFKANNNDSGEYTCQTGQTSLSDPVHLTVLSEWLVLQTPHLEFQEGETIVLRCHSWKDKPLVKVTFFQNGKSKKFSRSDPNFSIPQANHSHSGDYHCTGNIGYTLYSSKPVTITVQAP

T3: FcγRIIa R (extracellular domain, His tag at the C terminus) (human, UniProt P12318 34-217)
T3 construct: extracellular domain; Soluble analyte in Biacore; also called FcgRIIa R type; 2aR
T3 sequence (looked up): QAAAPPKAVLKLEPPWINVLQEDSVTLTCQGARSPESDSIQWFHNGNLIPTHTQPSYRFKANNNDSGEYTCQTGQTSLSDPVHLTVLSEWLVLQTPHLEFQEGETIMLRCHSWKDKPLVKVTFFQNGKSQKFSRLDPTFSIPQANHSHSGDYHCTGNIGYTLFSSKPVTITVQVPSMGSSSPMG


Tests used:
[1] = target: T1, FcγRIIa R; test: ratio of He/Con_2aR to He/Con_2b (binding to FcγRIIb as reference); SPR
[2] = target: T1, FcγRIIa R; test: SPR (Biacore), antibody captured via antigen peptide, FcγR as analyte
Description: (§1) The heterodimerized antibodies He Abs in which one of the H chains was introduced with an alteration were assayed for their binding activities to each activating FcγR and inhibitory FcγR according to the method described in Example 4. […] The activating FcγRs in FIGS. 26, 27, 28, and 29 are FcγRIa, FcγRIIa (R), FcγRIIa (H), and FcγRIIIa, respectively.
(§2) Analysis of interaction between objective antibody and the FcγR was carried out using Biacore T100 (GE Healthcare). HBS-EP+ (GE Healthcare) was used as the running buffer, and the measurement temperature was set to 25° C. Chips produced by immobilizing the antigen peptide by the amine coupling method to a Series S Sencor Chip CM5 (GE Healthcare), or alternatively, chips produced by allowing preliminarily biotinylated antigen peptides to interact with and immobilize onto a Series S Sensor Chip SA (certified) (GE Healthcare) were used. Antibodies of interest were captured onto an antigen peptide-immobilized chip, and allowed to interact to each FcγR diluted with running buffer. To regenerate and repeatedly use the chip, the antibodies captured on the chip were washed off by reacting 10 mM glycine-HCl, pH 1.5.

[3] = target: T2, FcγRIIb; test: as above
Description: as §1, §2

[4] = target: T3, FcγRIIa R (extracellular domain, His …); test: SPR (Biacore), relative binding, control GpH7-A5/GpH7-B3/GpL16-k0 = 100

Binder	He_2aR/2b (IIaR/IIb) [1]	He/Con_2aR (IIaR binding relative to GpH7-A5/GpH7-B3/GpL16-k0) [2]	He/Con_2b (IIb binding relative to GpH7-A5/GpH7-B3/GpL16-k0) [3]	He/Con_2aR [4]
GpH7-A5/GpH7-B3 variant P329_01G/GpL16-k0 (antibody, human IgG1, kappa, Heterodimerized anti-glypican-3 IgG1 antibody; alteration only in the GpH7-B3 H chain; position in EU numbering; also called He Ab) heavy 1: not shown heavy 2: not shown light: DIVMTQSPLSLPVTPGEPASISCQASESLVHSNRNTYLHWYLQKPGQSPQLLIYKVSNRFSGVPDRFSGSGSGTDFTLKISRVEAEDVGVYYCSQNTHVPPTFGQGTKVEIERTVAAPSVFIFPPSDEQLKSGTASVVCLLNNFYPREAKVQWKVDNALQSGNSQESVTEQDSKDSTYSLSSTLTLSKADYEKHKVYACEVTHQGLSSPVTKSFNRGEC	1.32	55 % of control (control = 100)	41.7 % of control (control = 100)	
GpH7-A5/GpH7-B3 variant A330_10E/GpL16-k0 (antibody, human IgG1, kappa, Heterodimerized anti-glypican-3 IgG1 antibody; alteration only in the GpH7-B3 H chain; position in EU numbering; also called He Ab) heavy 1: not shown heavy 2: not shown light: DIVMTQSPLSLPVTPGEPASISCQASESLVHSNRNTYLHWYLQKPGQSPQLLIYKVSNRFSGVPDRFSGSGSGTDFTLKISRVEAEDVGVYYCSQNTHVPPTFGQGTKVEIERTVAAPSVFIFPPSDEQLKSGTASVVCLLNNFYPREAKVQWKVDNALQSGNSQESVTEQDSKDSTYSLSSTLTLSKADYEKHKVYACEVTHQGLSSPVTKSFNRGEC	1.23	86.6 % of control (control = 100)	70.1 % of control (control = 100)	
GpH7-A5/GpH7-B3 variant T335_18N/GpL16-k0 (antibody, human IgG1, kappa, heterodimerized; also called He Ab) heavy 1: not shown heavy 2: not shown light: DIVMTQSPLSLPVTPGEPASISCQASESLVHSNRNTYLHWYLQKPGQSPQLLIYKVSNRFSGVPDRFSGSGSGTDFTLKISRVEAEDVGVYYCSQNTHVPPTFGQGTKVEIERTVAAPSVFIFPPSDEQLKSGTASVVCLLNNFYPREAKVQWKVDNALQSGNSQESVTEQDSKDSTYSLSSTLTLSKADYEKHKVYACEVTHQGLSSPVTKSFNRGEC				106 % of control
GpH7-A5/GpH7-B3 variant A330_07I/GpL16-k0 (antibody, human IgG1, kappa, Heterodimerized anti-glypican-3 IgG1 antibody; alteration only in the GpH7-B3 H chain; position in EU numbering; also called He Ab) heavy 1: not shown heavy 2: not shown light: DIVMTQSPLSLPVTPGEPASISCQASESLVHSNRNTYLHWYLQKPGQSPQLLIYKVSNRFSGVPDRFSGSGSGTDFTLKISRVEAEDVGVYYCSQNTHVPPTFGQGTKVEIERTVAAPSVFIFPPSDEQLKSGTASVVCLLNNFYPREAKVQWKVDNALQSGNSQESVTEQDSKDSTYSLSSTLTLSKADYEKHKVYACEVTHQGLSSPVTKSFNRGEC	1.27	85.6 % of control (control = 100)	67.1 % of control (control = 100)	
GpH7-A5/GpH7-B3 variant A330_12R/GpL16-k0 (antibody, human IgG1, kappa, Heterodimerized anti-glypican-3 IgG1 antibody; alteration only in the GpH7-B3 H chain; position in EU numbering; also called He Ab) heavy 1: not shown heavy 2: not shown light: DIVMTQSPLSLPVTPGEPASISCQASESLVHSNRNTYLHWYLQKPGQSPQLLIYKVSNRFSGVPDRFSGSGSGTDFTLKISRVEAEDVGVYYCSQNTHVPPTFGQGTKVEIERTVAAPSVFIFPPSDEQLKSGTASVVCLLNNFYPREAKVQWKVDNALQSGNSQESVTEQDSKDSTYSLSSTLTLSKADYEKHKVYACEVTHQGLSSPVTKSFNRGEC	1.22	104 % of control (control = 100)	84.8 % of control (control = 100)	
GpH7-A5/GpH7-B3 variant T335_20W/GpL16-k0 (antibody, human IgG1, kappa, heterodimerized; also called He Ab) heavy 1: not shown heavy 2: not shown light: DIVMTQSPLSLPVTPGEPASISCQASESLVHSNRNTYLHWYLQKPGQSPQLLIYKVSNRFSGVPDRFSGSGSGTDFTLKISRVEAEDVGVYYCSQNTHVPPTFGQGTKVEIERTVAAPSVFIFPPSDEQLKSGTASVVCLLNNFYPREAKVQWKVDNALQSGNSQESVTEQDSKDSTYSLSSTLTLSKADYEKHKVYACEVTHQGLSSPVTKSFNRGEC				109 % of control
GpH7-A5/GpH7-B3 variant Y296_20W/GpL16-k0 (antibody, human IgG1, kappa, heterodimerized; also called He Ab) heavy 1: not shown heavy 2: not shown light: DIVMTQSPLSLPVTPGEPASISCQASESLVHSNRNTYLHWYLQKPGQSPQLLIYKVSNRFSGVPDRFSGSGSGTDFTLKISRVEAEDVGVYYCSQNTHVPPTFGQGTKVEIERTVAAPSVFIFPPSDEQLKSGTASVVCLLNNFYPREAKVQWKVDNALQSGNSQESVTEQDSKDSTYSLSSTLTLSKADYEKHKVYACEVTHQGLSSPVTKSFNRGEC				110 % of control
GpH7-A5/GpH7-B3 variant A330_13S/GpL16-k0 (antibody, human IgG1, kappa, Heterodimerized anti-glypican-3 IgG1 antibody; alteration only in the GpH7-B3 H chain; position in EU numbering; also called He Ab) heavy 1: not shown heavy 2: not shown light: DIVMTQSPLSLPVTPGEPASISCQASESLVHSNRNTYLHWYLQKPGQSPQLLIYKVSNRFSGVPDRFSGSGSGTDFTLKISRVEAEDVGVYYCSQNTHVPPTFGQGTKVEIERTVAAPSVFIFPPSDEQLKSGTASVVCLLNNFYPREAKVQWKVDNALQSGNSQESVTEQDSKDSTYSLSSTLTLSKADYEKHKVYACEVTHQGLSSPVTKSFNRGEC	1.47	60.8 % of control (control = 100)	41.3 % of control (control = 100)	
